The numbers were not newly measured in PMC6767261, which cites them from elsewhere.

The target of this data set is Endothelin receptor type B (UniProt P24530). The data set can be described thus: radioligand.
Sequence of UniProt P24530 (P24530 27-442): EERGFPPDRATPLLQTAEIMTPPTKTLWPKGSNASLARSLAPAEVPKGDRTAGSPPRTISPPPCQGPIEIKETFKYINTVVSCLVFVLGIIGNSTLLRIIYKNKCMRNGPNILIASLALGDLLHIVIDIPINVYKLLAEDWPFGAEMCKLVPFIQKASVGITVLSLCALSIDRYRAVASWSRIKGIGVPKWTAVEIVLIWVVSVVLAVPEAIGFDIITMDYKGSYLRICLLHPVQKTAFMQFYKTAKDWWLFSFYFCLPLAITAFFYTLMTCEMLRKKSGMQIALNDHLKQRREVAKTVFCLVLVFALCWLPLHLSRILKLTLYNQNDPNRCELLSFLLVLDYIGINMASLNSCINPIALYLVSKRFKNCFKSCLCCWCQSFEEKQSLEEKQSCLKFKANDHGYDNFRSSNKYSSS

Consider “Endothelin-1 ([125I]-ET-1), ciliary epithelium (from UniProt P05305)”, for which the equilibrium dissociation constant (Kd) was 54.5 nM.
“Endothelin-1 ([125I]-ET-1), ciliary muscle (from UniProt P05305)”: the Kd was 142 nM.
